Laboratory results: paper PMC8632722

Biological target: His-TF-LqqP (Lysobacter enzymogenes OH11)
Assay: MST

PcoI-His (enzyme)
Kd: 646 nM
